Experimental data reported in publication PMC7195491.
“And” between values parts separate entries of the source, which are not always exact repeats. Equal entries are not always repeated. Where two headings read alike, the source gives them in different places. One block for each substance: values may come before it.

What was measured:
[1] = target: DIP-α K10Q, extracellular region (Drosophila melanogaster); test: AUC; sedimentation equilibrium, 25 °C, 10 mM Bis-Tris pH 6.6, 150 mM NaCl, UV 280 nm, global fit (HeteroAnalysis); dimer to monomers; two runs (n 1, 2) and their average
[2] = target: DIP-α K10Q {K81Q}, extracellular region (Drosophila melanogaster) (UniProt Q9W4R3); test: AUC; sedimentation equilibrium, 25 °C, 10 mM Bis-Tris pH 6.6, 150 mM NaCl, detection at 280 nm; global fit (HeteroAnalysis); dimer to monomers; mean of two independent measurements
[3] = target: DIP-α (Drosophila melanogaster); test: SPR; Biacore T100, CM4 chip; DIPs and DIP mutants immobilised by amine coupling (760-980 RU), Dprs and Dpr mutants as analytes (three-fold dilution series, up to 81 μM, in some cases up to 27 or 9 μM); 25 °C; 10 mM Tris-HCl pH 7.2, 150 mM NaCl, 1 mM EDTA, 1 mg/mL BSA, 0.01% Tween-20; equilibrium fit, 1:1 model; for KDs > 300 μM a lower limit is listed
[4] = target: DIP-α K10Q G4S, extracellular region (Drosophila melanogaster); test: AUC; sedimentation equilibrium, 25 °C, 10 mM Bis-Tris pH 6.6, 150 mM NaCl, UV 280 nm, global fit (HeteroAnalysis); dimer to monomers; two runs (n 1, 2) and their average
[5] = target: DIP-α (Dpr Interacting Protein alpha), extracellular region (Drosophila melanogaster) (UniProt Q9W4R3); test: SPR; Biacore T100, CM4 chip; DIPs and DIP mutants immobilised by amine coupling, Dprs as analytes; 25 °C; 10 mM Tris-HCl pH 7.2, 150 mM NaCl, 1 mM EDTA, 1 mg/mL BSA, 0.01% Tween-20; duplicate responses fit globally to a 1:1 model; Rmax fixed for KDs > 100 μM, lower limit listed for KDs > 300 μM
[6] = target: DIP-β (isoformG), extracellular region (Drosophila melanogaster); test: as above
[7] = target: DIP-α (Dpr Interacting Protein alpha), extracellular region (Drosophila melanogaster) (UniProt Q9W4R3); test: as above; remark: listed apart in the source
[8] = target: DIP-γ (Drosophila melanogaster); test: SPR; Biacore T100, CM4 chip; DIPs and DIP mutants immobilised by amine coupling (760-980 RU), Dprs and Dpr mutants as analytes (three-fold dilution series, up to 81 μM, in some cases up to 27 or 9 μM); 25 °C; 10 mM Tris-HCl pH 7.2, 150 mM NaCl, 1 mM EDTA, 1 mg/mL BSA, 0.01% Tween-20; equilibrium fit, 1:1 model; for KDs > 300 μM a lower limit is listed
[9] = target: DIP-α K10Q S32D {K81Q S133D}, extracellular region (Drosophila melanogaster) (UniProt Q9W4R3); test: SPR; Biacore T100, CM4 chip; DIPs and DIP mutants immobilised by amine coupling, Dprs as analytes; 25 °C; 10 mM Tris-HCl pH 7.2, 150 mM NaCl, 1 mM EDTA, 1 mg/mL BSA, 0.01% Tween-20; duplicate responses fit globally to a 1:1 model; Rmax fixed for KDs > 100 μM, lower limit listed for KDs > 300 μM
[10] = target: DIP-α K10Q G4S {K81Q G74S}, extracellular region (Drosophila melanogaster) (UniProt Q9W4R3); test: as above
[11] = target: DIP-α G4L {G74L}, extracellular region (Drosophila melanogaster) (UniProt Q9W4R3); test: as above
[12] = target: DIP-α A11T {A82T}, extracellular region (Drosophila melanogaster) (UniProt Q9W4R3); test: as above
[13] = target: DIP-α A7K {A78K}, extracellular region (Drosophila melanogaster) (UniProt Q9W4R3); test: as above
[14] = target: DIP-α N19D {N94D}, extracellular region (Drosophila melanogaster) (UniProt Q9W4R3); test: as above
[15] = target: DIP-α I16A {I91A}, extracellular region (Drosophila melanogaster) (UniProt Q9W4R3); test: as above
[16] = target: DIP-α K10Q {K81Q}, extracellular region (Drosophila melanogaster) (UniProt Q9W4R3); test: as above
[17] = target: DIP-α G4A {G74A}, extracellular region (Drosophila melanogaster) (UniProt Q9W4R3); test: as above
[18] = target: DIP-α K10Q S32D {K81Q S133D}, extracellular region (Drosophila melanogaster) (UniProt Q9W4R3); test: AUC; sedimentation equilibrium, 25 °C, 10 mM Bis-Tris pH 6.6, 150 mM NaCl, detection at 280 nm; global fit (HeteroAnalysis); dimer to monomers; mean of two independent measurements
[19] = target: DIP-α K10Q G4S {K81Q G74S}, extracellular region (Drosophila melanogaster) (UniProt Q9W4R3); test: as above
[20] = target: DIP-α K10Q S32D, extracellular region (Drosophila melanogaster); test: AUC; sedimentation equilibrium, 25 °C, 10 mM Bis-Tris pH 6.6, 150 mM NaCl, UV 280 nm, global fit (HeteroAnalysis); dimer to monomers; two runs (n 1, 2) and their average
[21] = target: DIP-γ (Dpr Interacting Protein gamma), extracellular region (Drosophila melanogaster) (UniProt Q9VAR6); test: SPR; Biacore T100, CM4 chip; DIPs and DIP mutants immobilised by amine coupling, Dprs as analytes; 25 °C; 10 mM Tris-HCl pH 7.2, 150 mM NaCl, 1 mM EDTA, 1 mg/mL BSA, 0.01% Tween-20; duplicate responses fit globally to a 1:1 model; Rmax fixed for KDs > 100 μM, lower limit listed for KDs > 300 μM
Chain of DIP-γ (Dpr Interacting Protein gamma), extracellular region (Drosophila melanogaster) (Q9VAR6 entry or part of it): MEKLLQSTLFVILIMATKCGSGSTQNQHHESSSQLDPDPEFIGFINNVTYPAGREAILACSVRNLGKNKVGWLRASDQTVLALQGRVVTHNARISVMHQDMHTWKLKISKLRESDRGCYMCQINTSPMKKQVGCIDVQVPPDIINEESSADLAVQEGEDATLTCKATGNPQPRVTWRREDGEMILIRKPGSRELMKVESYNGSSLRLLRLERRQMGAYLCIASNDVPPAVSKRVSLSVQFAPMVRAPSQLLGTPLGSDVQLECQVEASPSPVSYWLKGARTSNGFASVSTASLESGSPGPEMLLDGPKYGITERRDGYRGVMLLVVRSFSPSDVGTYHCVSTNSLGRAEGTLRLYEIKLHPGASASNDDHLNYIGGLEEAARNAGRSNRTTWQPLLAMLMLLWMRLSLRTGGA

Kd [1]: 17.8 µM and 21.6 µM
Kd ([1]; mean): 19.7 µM
Substance: DIP-α K10Q, extracellular region (domain or fragment)

Kd [2]: 19.7 µM
stoichiometry N [2]: 2
Substance: DIP-α K10Q {K81Q}, extracellular region (from UniProt Q9W4R3 1-554) (domain or fragment)

Kd [3]: 2 µM
Substance: Dpr6 (domain or fragment)

Kd [4]: 52 µM and 40.6 µM
Kd ([4]; mean): 46.3 µM
Substance: DIP-α K10Q G4S, extracellular region (domain or fragment)

Kd [5]: > 300 µM
Kd [6]: > 300 µM
Substance: Dpr11 K31V E29Q {K207V E205Q}, extracellular region (from UniProt Q8MRE6 1-360) (domain or fragment)

Kd [6]: 52.3 µM
Substance: Dpr10 V31K {V144K}, extracellular region (from UniProt M9PF17 1-362) (domain or fragment)

Kd [7]: 19.3 µM
Substance: Dpr10 Q26D {Q138D}, extracellular region (from UniProt M9PF17 1-362) (domain or fragment)

Kd [8]: 131 µM
Substance: Dpr11 K31V,E29Q (domain or fragment)

Kd [9]: 26.2 µM
Kd [10]: 101 µM
Kd [11]: 23.5 µM
Kd [12]: 10.1 µM
Kd [13]: 0.46 µM
Kd [14]: 1.05 µM
Kd [15]: 80.1 µM
Kd [16]: 18.4 µM
Kd [17]: 1.1 µM
Substance: Dpr6 (Defective proboscis extension response 6), extracellular region (from UniProt M9PC40 1-390) (domain or fragment)

Kd [18]: 64.4 µM
stoichiometry N [18]: 2
Substance: DIP-α K10Q S32D {K81Q S133D}, extracellular region (from UniProt Q9W4R3 1-554) (domain or fragment)

Kd [19]: 46.3 µM
stoichiometry N [19]: 2
Substance: DIP-α K10Q G4S {K81Q G74S}, extracellular region (from UniProt Q9W4R3 1-554) (domain or fragment)

fold increase of KD over the V31K single mutant [3]: 2 fold
Substance: Dpr10 V31K Q29E (domain or fragment)

Kd [6]: 71.6 µM
Substance: Dpr10 V31K Q29E {V144K Q142E}, extracellular region (from UniProt M9PF17 1-362) (domain or fragment)

Kd [8]: 22.7 µM
Substance: Dpr11 K31V (domain or fragment)

Kd [5]: > 300 µM
Kd [6]: > 300 µM
Substance: Dpr11 K31V {K207V}, extracellular region (from UniProt Q8MRE6 1-360) (domain or fragment)

Kd [20]: 60.6 µM and 68.3 µM
Kd ([20]; mean): 64.5 µM
Substance: DIP-α K10Q S32D, extracellular region (domain or fragment)

Kd [21]: 17.6 µM
Kd [6]: 27.8 µM
Substance: Dpr11 K31V E29Q G10L {K207V E205Q G157L}, extracellular region (from UniProt Q8MRE6 1-360) (domain or fragment)

fold increase of KD over wild-type Dpr10 [3]: 10 fold
Substance: Dpr10 V31K (domain or fragment)
